Measured values as given in patent publication US20140314793A1 (BIOINVENT INTERNATIONAL, published 2014).

What was measured:
[1] = target: T1, intercellular cell adhesion molecule-1 (ICAM-1) on the surface of human cells (human, UniProt P05362 28-532); assay: FACS of bone marrow cells, patient 1
T1 construct: whole, on cells; Endogenous antigen; also called CD54

[2] = target: T1, intercellular cell adhesion molecule-1 …; assay: FACS of bone marrow cells, patient 6
[3] = target: T1, intercellular cell adhesion molecule-1 …; assay: FACS of bone marrow cells, patient 19:2
[4] = target: T1, intercellular cell adhesion molecule-1 …; assay: FACS of bone marrow cells, patient 15
[5] = target: T1, intercellular cell adhesion molecule-1 …; assay: FACS of bone marrow cells, patient 21
[6] = target: T1, intercellular cell adhesion molecule-1 …; assay: FACS of bone marrow cells, patient 20
[7] = target: T1, intercellular cell adhesion molecule-1 …; assay: FACS of bone marrow cells, patient 11
[8] = target: T1, intercellular cell adhesion molecule-1 …; assay: FACS of bone marrow cells, patient 8
[9] = target: T1, intercellular cell adhesion molecule-1 …; assay: FACS of bone marrow cells, patient 9
[10] = target: T1, intercellular cell adhesion molecule-1 …; assay: flow cytometry on myeloma cells of one patient, relapse versus diagnosis
[11] = target: T1, intercellular cell adhesion molecule-1 …; assay: FACS of bone marrow cells, patient 2
recombinant ICAM-1 = target: T2, recombinant ICAM-1 (UniProt P05362 28-480); assay: ELISA on recombinant ICAM-1, luminescence
T2 construct: also called recombinant ICAM-1 protein

[12] = target: T1, intercellular cell adhesion molecule-1 …; assay: FACS of bone marrow cells, patient 5
[13] = target: T1, intercellular cell adhesion molecule-1 …; assay: flow cytometry on ARH-77 cells, % of maximal cell ICAM-1 binding
[14] = target: T1, intercellular cell adhesion molecule-1 …; assay: FACS of bone marrow cells, patient 10
[15] = target: T1, intercellular cell adhesion molecule-1 …; assay: flow cytometry, AF647 Zenon-labelled IgG
[16] = target: T1, intercellular cell adhesion molecule-1 …; assay: saturation binding of radioiodinated IgG to Ramos cells, unlabelled IgG subtracted
Method: (§1) Specific binding was determined by subtracting binding in the presence of unlabeled competing protein from total binding.
(§2) Analysis was performed in triplicates.
(§3) The specific binding of [¹²⁵I]IgG to the cell surface was calculated by subtracting non-specific binding (binding in the presence of excess unlabelled IgG) from the total binding.

[17] = target: T1, intercellular cell adhesion molecule-1 …; assay: FACS of bone marrow cells, patient 4
[18] = target: T1, intercellular cell adhesion molecule-1 …; assay: 125I-IgG saturation binding, Rosenthal-Scatchard plot (legend of FIG. 5; Ramos cells in the panels, 'Raji cells' at the end of the sentence); legend of FIG. 5; Ramos cells (right panels, IgG B11), though the sentence ends '(Raji cells)'
Method: as §2
(§4) Antibody affinity constants (Kd values) and epitope numbers per cell were determined from Scatchard plot analysis according to Rosenthal et al. (Anal. Biochem. (1967) 20:525-532); Bylund and Yamamura (Methods in Neurotransmitter Analysed, New York: Raven Press Ltd., 1990); and Marquardt (J. Soc. Indust. Appl. Math. (1963) 11:431-441), as previously described (Brix et al., J. Clin. Invest. (1998) 102:283-293).
as §3

[19] = target: T1, intercellular cell adhesion molecule-1 …; assay: FACS of bone marrow cells, patient 12
[20] = target: T1, intercellular cell adhesion molecule-1 …; assay: 125I-IgG saturation binding on Ramos cells at 4° C., Rosenthal-Scatchard plot
Method: as §1, §4, §3

[21] = target: T1, intercellular cell adhesion molecule-1 …; assay: FACS of bone marrow cells, patient 19:3
[22] = target: T1, intercellular cell adhesion molecule-1 …; assay: FACS of bone marrow cells, patient 7
ICAM-2 (recombinant) = target: T3, ICAM-2 (recombinant) (UniProt P13598 25-223, limits assumed); assay: dose-dependent binding to recombinant protein (FIG. 12C b)
T3 sequence (looked up): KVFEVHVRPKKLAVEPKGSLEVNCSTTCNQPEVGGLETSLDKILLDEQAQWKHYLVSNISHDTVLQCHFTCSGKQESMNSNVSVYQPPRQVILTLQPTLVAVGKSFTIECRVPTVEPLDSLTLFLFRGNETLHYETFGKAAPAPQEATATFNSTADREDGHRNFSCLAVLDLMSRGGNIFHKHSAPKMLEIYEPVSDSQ

ICAM-3 (recombinant) = target: T4, ICAM-3 (recombinant) (UniProt P32942 30-485, limits assumed); assay: as above
T4 sequence (looked up): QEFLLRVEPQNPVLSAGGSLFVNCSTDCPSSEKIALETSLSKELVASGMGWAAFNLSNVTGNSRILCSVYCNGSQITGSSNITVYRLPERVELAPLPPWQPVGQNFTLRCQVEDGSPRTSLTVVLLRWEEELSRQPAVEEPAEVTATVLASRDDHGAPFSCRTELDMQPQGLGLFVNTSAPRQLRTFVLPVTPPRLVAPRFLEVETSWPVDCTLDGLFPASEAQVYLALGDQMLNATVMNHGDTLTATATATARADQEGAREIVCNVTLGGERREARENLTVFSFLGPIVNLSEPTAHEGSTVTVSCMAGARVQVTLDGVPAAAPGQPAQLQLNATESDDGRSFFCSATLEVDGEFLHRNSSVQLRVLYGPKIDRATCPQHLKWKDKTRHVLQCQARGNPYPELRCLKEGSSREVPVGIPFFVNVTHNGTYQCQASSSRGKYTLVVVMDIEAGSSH

[23] = target: T1, intercellular cell adhesion molecule-1 …; assay: FACS of bone marrow cells, patient 19:1
[24] = target: T1, intercellular cell adhesion molecule-1 …; assay: FACS of bone marrow cells, patient 22
[25] = target: T1, intercellular cell adhesion molecule-1 …; assay: flow cytometry on patient bone marrow cells
[26] = target: T1, intercellular cell adhesion molecule-1 …; assay: FACS of bone marrow cells, patient 14
[27] = target: T1, intercellular cell adhesion molecule-1 …; assay: FACS of bone marrow cells, patient 17
[28] = target: T1, intercellular cell adhesion molecule-1 …; assay: FACS of tumor cells incubated with serially diluted AF647-BI-505 after FcγR pre-block with human IgG (receptor occupancy)
Method: The experiment was repeated three times and mean MFI values were calculated and plotted as a function of antibody concentration. […] The curve was fitted using a five-parameter log-log curve and XLfit software. […] Cells received treatment in triplicate and the experiment was repeated three to five times. […] In vitro PCD and in vivo anti-tumor activity were plotted as a function of receptor occupancy using curve fitting equations and data generated and described above.

[29] = target: T1, intercellular cell adhesion molecule-1 …; assay: FACS of bone marrow cells, patient 16
[30] = target: T1, intercellular cell adhesion molecule-1 …; assay: FACS of bone marrow cells, patient 18
[31] = target: T1, intercellular cell adhesion molecule-1 …; assay: FACS of bone marrow cells, patient 13

T1 sequence (P05362 28-532): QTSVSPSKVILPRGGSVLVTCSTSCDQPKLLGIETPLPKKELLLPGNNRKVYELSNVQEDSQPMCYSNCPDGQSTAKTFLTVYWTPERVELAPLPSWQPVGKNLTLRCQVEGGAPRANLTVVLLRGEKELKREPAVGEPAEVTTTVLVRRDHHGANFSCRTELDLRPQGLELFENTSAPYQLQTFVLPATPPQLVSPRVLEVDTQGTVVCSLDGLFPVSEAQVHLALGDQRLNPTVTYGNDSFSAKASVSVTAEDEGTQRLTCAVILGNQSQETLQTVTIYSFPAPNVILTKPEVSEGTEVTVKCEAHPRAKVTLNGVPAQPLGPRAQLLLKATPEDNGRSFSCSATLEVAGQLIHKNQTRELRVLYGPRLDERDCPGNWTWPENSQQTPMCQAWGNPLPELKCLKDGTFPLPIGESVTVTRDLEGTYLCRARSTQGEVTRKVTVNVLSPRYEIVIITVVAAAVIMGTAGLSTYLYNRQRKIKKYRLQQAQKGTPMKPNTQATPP
T2 sequence (P05362 28-480 limits assumed): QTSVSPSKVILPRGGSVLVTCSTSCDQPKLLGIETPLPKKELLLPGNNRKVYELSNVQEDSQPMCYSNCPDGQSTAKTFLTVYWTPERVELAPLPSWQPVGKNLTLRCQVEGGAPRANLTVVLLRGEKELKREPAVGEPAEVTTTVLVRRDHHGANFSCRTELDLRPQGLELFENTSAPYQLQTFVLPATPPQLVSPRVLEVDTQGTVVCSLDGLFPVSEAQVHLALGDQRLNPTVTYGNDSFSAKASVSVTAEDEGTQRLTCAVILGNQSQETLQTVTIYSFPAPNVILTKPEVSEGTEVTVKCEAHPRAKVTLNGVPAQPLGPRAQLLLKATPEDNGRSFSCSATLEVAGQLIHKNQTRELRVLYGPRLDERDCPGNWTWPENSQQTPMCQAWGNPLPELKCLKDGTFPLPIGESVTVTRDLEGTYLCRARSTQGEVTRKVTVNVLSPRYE

B1: B11 IgG1 (BI-505), fully human anti-ICAM-1 antibody (antibody, V domains shown)
VH: EVQLLESGGGLVQPGGSLRLSCAASGFTFSNAWMSWVRQAPGKGLEWVAFIWYDGSNKYYADSVKGRFTISRDNSKNTLYLQMNSLRAEDTAVYYCARYSGWYFDYWGQGTLVTVSS
VL: QSVLTQPPSASGTPGQRVTISCTGSSSNIGAGYDVHWYQQLPGTAPKLLIYDNNNRPSGVPDRFSGSKSGTSASLAISGLRSEDEADYYCQSYDSSLSAWLFGGGTKLTVL
notes: That 6 is VH and 8 is VL follows only from the order 'VH and VL'; also called IgG B11
- fold increase of BI-505 epitope on MM cells compared to normal B cells [1]: 55 fold
- fold increase of BI-505 epitope on MM cells compared to normal B cells [2]: 9 fold
- fold increase of BI-505 epitope on MM cells compared to normal B cells [3]: 6 fold
- fold increase of BI-505 epitope on MM cells compared to normal B cells [4]: 27 fold
- fold increase of BI-505 epitope on MM cells compared to normal B cells [5]: 4 fold
- fold increase of BI-505 epitope on MM cells compared to normal B cells [6]: 27 fold
- fold increase of BI-505 epitope on MM cells compared to normal B cells [7]: 10 fold
- fold increase of BI-505 epitope on MM cells compared to normal B cells [8]: 12 fold
- fold increase of BI-505 epitope on MM cells compared to normal B cells [9]: 18 fold
- fold expression of the epitope after first relapse [10]: 2 fold
- fold increase of BI-505 epitope on MM cells compared to normal B cells [11]: 8 fold
- EC50 (read off the curve) (recombinant ICAM-1): ~0.3 nM
- fold increase of BI-505 epitope on MM cells compared to normal B cells [12]: 9 fold
- EC50 (read off the curve) [13]: ~0.05 mg/L
- fold increase of BI-505 epitope on MM cells compared to normal B cells [14]: 4 fold
- fold binding, Ramos versus NK cells [15]: 23 fold
- fold binding, Ramos versus monocyte cells [15]: 3.7 fold
- fold binding, Ramos versus peripheral blood B lymphocytes [15]: 8.3 fold
- EC50 (read off the curve) [16]: ~0.3 nM
- fold increase of BI-505 epitope on MM cells compared to normal B cells [17]: 9 fold
- Kd [18]: ~0.3 nM
- fold increase of BI-505 epitope on MM cells compared to normal B cells [19]: 16 fold
- Kd [20]: ~0.2 nM
- fold increase of BI-505 epitope on MM cells compared to normal B cells [21]: 4 fold
- fold increase of BI-505 epitope on MM cells compared to normal B cells [22]: 45 fold
- binding result (ICAM-2 (recombinant)): no binding
- binding result (ICAM-3 (recombinant)): no binding
- fold increase of BI-505 epitope on MM cells compared to normal B cells [23]: 10 fold
- fold increase of BI-505 epitope on MM cells compared to normal B cells [24]: 6 fold
- fold expression of the epitope, myeloma cells versus normal B cells [25]: 10 fold
- fold increase of BI-505 epitope on MM cells compared to normal B cells [26]: 5 fold
- fold increase of BI-505 epitope on MM cells compared to normal B cells [27]: 11 fold
- EC50 (read off the curve) [28]: ~0.4 mg/L
- fold increase of BI-505 epitope on MM cells compared to normal B cells [29]: 3 fold
- fold increase of BI-505 epitope on MM cells compared to normal B cells [30]: 8 fold
- fold increase of BI-505 epitope on MM cells compared to normal B cells [31]: 47 fold

B2: BI-505 IgG4 (antibody, V domains shown)
VH: B1 VH
VL: QSVLTQPPSASGTPGQRVTISCTGSSSNIGAGYDVHWYQQLPGTAPKLLIYDNNNRPSGVPDRFSGSKSGTSASLAISGLRSEDEADYYCQSYDSSLSAWLFGGGTKLTVLG
- EC50 (read off the curve) (recombinant ICAM-1): ~0.2 nM
- EC50 (read off the curve) [13]: ~0.05 mg/L

B3: BI-505 IgG1 N297Q (antibody, V domains shown)
VH: B1 VH
VL: B2 VL
notes: also called Fc-mut; BI-505N297Q
- EC50 (read off the curve) (recombinant ICAM-1): ~0.2 nM
- EC50 (read off the curve) [13]: ~0.05 mg/L
